Laboratory results reported in article PMC4750992, “A New Mutation, hap1-2, Reveals a C Terminal Domain Function in AtMago Protein and Its Biological Effects in Male Gametophyte Development in Arabidopsis thaliana” (PLoS ONE, 2016).

Target: T1, His-AteIF4AIII (Arabidopsis thaliana, UniProt Q94A52 1-408)
T1 construct: AteIF4AIII, Arabidopsis thaliana; cDNA amplified from qrt cDNAs with primers AteIF4AIIIFNdeI and AteIF4AIIIRSalI; Vector pET16b; also called His-eIF4AIII; source: E. coli BL21 (DE3) (pET16b), purified and eluted with ProBond beads
Test: pull-down; MBP, MBP-AtMago or MBP-AtMagoΔC kept on amylose beads; purified His-Y14 or His-eIF4AIII diluted in Column Buffer (200 mM NaCl, 1 mM EDTA, 20 mM Tris-HCl, pH 7.4), 300 μL, on ice 1 hour; three washes; Western blot with anti-His or anti-MBP
Conditions: both partners purified

T1 sequence (Q94A52 whole entry): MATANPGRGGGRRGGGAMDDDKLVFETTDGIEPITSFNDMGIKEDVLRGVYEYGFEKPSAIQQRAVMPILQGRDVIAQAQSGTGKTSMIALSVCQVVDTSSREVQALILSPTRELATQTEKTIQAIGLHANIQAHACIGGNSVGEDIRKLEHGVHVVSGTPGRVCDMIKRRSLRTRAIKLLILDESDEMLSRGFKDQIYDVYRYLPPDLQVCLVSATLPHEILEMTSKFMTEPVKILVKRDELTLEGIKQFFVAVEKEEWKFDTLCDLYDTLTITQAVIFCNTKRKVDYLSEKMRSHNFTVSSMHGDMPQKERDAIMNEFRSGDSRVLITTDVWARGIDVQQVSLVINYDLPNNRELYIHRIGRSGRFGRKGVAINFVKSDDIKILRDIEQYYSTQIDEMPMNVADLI

binding result: binds
B1: MBP-AtMago (natural protein, Arabidopsis thaliana, UniProt O23676 1-150, looked up)
chain: MAAEEATEFYLRYYVGHKGKFGHEFLEFEFREDGKLRYANNSNYKNDTIIRKEVFLTPAVLKECKRIVSESEILKEDDNNWPEPDRVGKQELEIVLGNEHISFATSKIGSLVDCQSSNDPEGLRIFYYLVQDLKCLVFSLISLHFKIKPI
notes: AtMago (HAP1), Arabidopsis thaliana, full length protein of 150 amino acids; cDNA amplified from qrt;HAP1/hap1-2 cDNAs; Cloned BamHI/HindIII into pMAL-c2; also called HAP1; HAPLESS1
